According to patent US20260209386A1 (MYTHIC THERAPEUTICS, published 2026):
Changes are numbered by the printed parent chain.

T1: Human PTK7 Protein, His Tag (Acro Biosystems) (human, UniProt Q13308 31-704)
T1 construct: Bought His-tagged protein; also called CCK4; not shown: His tag
T1 sequence: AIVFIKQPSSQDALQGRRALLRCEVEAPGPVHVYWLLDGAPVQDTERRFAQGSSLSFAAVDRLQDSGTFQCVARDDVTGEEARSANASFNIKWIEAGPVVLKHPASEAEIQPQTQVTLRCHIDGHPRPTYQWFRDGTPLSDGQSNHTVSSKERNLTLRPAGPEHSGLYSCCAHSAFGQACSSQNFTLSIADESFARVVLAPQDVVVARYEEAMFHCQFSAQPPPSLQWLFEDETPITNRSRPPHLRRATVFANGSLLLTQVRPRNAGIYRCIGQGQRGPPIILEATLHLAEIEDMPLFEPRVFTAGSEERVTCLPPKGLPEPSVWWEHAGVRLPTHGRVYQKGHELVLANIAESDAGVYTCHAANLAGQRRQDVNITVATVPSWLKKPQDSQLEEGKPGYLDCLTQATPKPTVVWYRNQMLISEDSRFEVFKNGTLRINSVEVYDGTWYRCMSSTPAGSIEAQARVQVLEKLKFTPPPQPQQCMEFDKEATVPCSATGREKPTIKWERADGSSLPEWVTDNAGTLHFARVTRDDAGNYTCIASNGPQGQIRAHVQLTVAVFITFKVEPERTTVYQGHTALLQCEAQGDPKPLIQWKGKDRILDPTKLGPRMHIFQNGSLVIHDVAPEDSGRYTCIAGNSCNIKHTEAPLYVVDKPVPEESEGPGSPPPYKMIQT

B1: MYT11040 (antibody, V domains shown)
VH: EVQLVESGGGLVQPGGSLRLSCTASGLSLSSYWMSWVRQAPGKGLEWVGVISHGGNTYYANWAKGRFTISRDTSKNTVYLQMNSLRAEDTAVYFCARGDDGYTNAAYVSNLWGQGTLVTVSS
VL: EIVMTQSPSTLSASVGDRVIITCQASQSISSWLSWYQQKPGKAPKLLIYKASTLASGVPSRFSGSGSGAEFTLTISSLQPDDFATYYCQSYFDSTTIAFGQGTKLTVL
notes: MYT9361 HC variant
B2: MYT11086 (antibody, V domains shown)
VH: B1 VH with H53A
VL: B1 VL with T53H
notes: MYT9361 LC variant
B3: MYT11074 (antibody, V domains shown)
VH: B1 VH with H53A
VL: B1 VL with S26H
notes: MYT9361 LC variant
B4: MYT11062 (antibody, V domains shown)
VH: B1 VH with H53A, A105H
VL: B1 VL
notes: MYT9361 HC variant
B5: MYT11067 (antibody, V domains shown)
VH: B1 VH with H53A, N110H
VL: B1 VL
notes: MYT9361 HC variant
B6: MYT11041 (antibody, V domains shown)
VH: B1 VH with H53A, G54H
VL: B1 VL
notes: MYT9361 HC variant
B7: MYT11057 (antibody, V domains shown)
VH: B1 VH with H53A, D100H
VL: B1 VL
notes: MYT9361 HC variant
B8: MYT11089 (antibody, V domains shown)
VH: B1 VH with H53A
VL: B1 VL with S56H
notes: MYT9361 LC variant
B9: MYT11097 (antibody, V domains shown)
VH: B1 VH with H53A
VL: B1 VL with T96H
notes: MYT9361 LC variant
B10: MYT11071 (antibody, V domains shown)
VH: B1 VH with H53A, D100A
VL: B1 VL
notes: MYT9361 HC alanine variant
B11: MYT11046 (antibody, V domains shown)
VH: B1 VH with H53A, Y59H
VL: B1 VL
notes: MYT9361 HC variant
B12: MYT11050 (antibody, V domains shown)
VH: B1 VH with H53A, A63H
VL: B1 VL
notes: MYT9361 HC variant
B13: MYT11073 (antibody, V domains shown)
VH: B1 VH with H53A
VL: B1 VL with A25H
notes: MYT9361 LC variant
B14: MYT11072 (antibody, V domains shown)
VH: B1 VH with H53A
VL: B1 VL with Q24H
notes: MYT9361 LC variant
B15: MYT11045 (antibody, V domains shown)
VH: B1 VH with H53A, Y58H
VL: B1 VL
notes: MYT9361 HC variant
B16: MYT11049 (antibody, V domains shown)
VH: B1 VH with H53A, W62H
VL: B1 VL
notes: MYT9361 HC variant
B17: MYT11064 (antibody, V domains shown)
VH: B1 VH with H53A, Y107H
VL: B1 VL
notes: MYT9361 HC variant
B18: MYT11076 (antibody, V domains shown)
VH: B1 VH with H53A
VL: B1 VL with S28H
notes: MYT9361 LC variant
B19: MYT11051 (antibody, V domains shown)
VH: B1 VH with H53A, K64H
VL: B1 VL
notes: MYT9361 HC variant
B20: MYT11092 (antibody, V domains shown)
VH: B1 VH with H53A
VL: B1 VL with Y91H
notes: MYT9361 LC variant
B21: MYT11052 (antibody, V domains shown)
VH: B1 VH with H53A, G65H
VL: B1 VL
notes: MYT9361 HC variant
B22: MYT11054 (antibody, V domains shown)
VH: B1 VH with H53A, R97H
VL: B1 VL
B23: MYT11055 (antibody, V domains shown)
VH: B1 VH with H53A, G98H
VL: B1 VL
notes: MYT9361 HC variant
B24: MYT11087 (antibody, V domains shown)
VH: B1 VH with H53A
VL: B1 VL with L54H
notes: MYT9361 LC variant
B25: MYT11090 (antibody, V domains shown)
VH: B1 VH with H53A
VL: B1 VL with Q89H
notes: MYT9361 LC variant
B26: MYT11065 (antibody, V domains shown)
VH: B1 VH with H53A, V108H
VL: B1 VL
notes: MYT9361 HC variant
B27: MYT11066 (antibody, V domains shown)
VH: B1 VH with H53A, S109H
VL: B1 VL
notes: MYT9361 HC variant
B28: MYT11085 (antibody, V domains shown)
VH: B1 VH with H53A
VL: B1 VL with S52H
notes: MYT9361 LC variant
B29: MYT11047 (antibody, V domains shown)
VH: B1 VH with H53A, A60H
VL: B1 VL
notes: MYT9361 HC variant
B30: MYT11075 (antibody, V domains shown)
VH: B1 VH with H53A
VL: B1 VL with Q27H
notes: MYT9361 LC variant
B31: MYT11080 (antibody, V domains shown)
VH: B1 VH with H53A
VL: B1 VL with W32H
notes: MYT9361 LC variant
B32: MYT11088 (antibody, V domains shown)
VH: B1 VH with H53A
VL: B1 VL with A55H
notes: MYT9361 LC variant
B33: MYT11048 (antibody, V domains shown)
VH: B1 VH with H53A, N61H
VL: B1 VL
notes: MYT9361 HC variant
B34: MYT11095 (antibody, V domains shown)
VH: B1 VH with H53A
VL: B1 VL with S94H
notes: MYT9361 LC variant
B35: MYT11042 (antibody, V domains shown)
VH: B1 VH with H53A, G55H
VL: B1 VL
notes: MYT9361 HC variant
B36: MYT11061 (antibody, V domains shown)
VH: B1 VH with H53A, N104H
VL: B1 VL
notes: MYT9361 HC variant
B37: MYT11044 (antibody, V domains shown)
VH: B1 VH with H53A, T57H
VL: B1 VL
notes: MYT9361 HC variant
B38: MYT11060 (antibody, V domains shown)
VH: B1 VH with H53A, T103H
VL: B1 VL
notes: MYT9361 HC variant
B39: MYT11043 (antibody, V domains shown)
VH: B1 VH with H53A, N56H
VL: B1 VL
notes: MYT9361 HC variant
B40: MYT11070 (antibody, V domains shown)
VH: B1 VH with H53A, D99A
VL: B1 VL
notes: MYT9361 HC alanine variant
B41: MYT11083 (antibody, V domains shown)
VH: B1 VH with H53A
VL: B1 VL with K50H
notes: MYT9361 LC variant

Molecular target: T1, Human PTK7 Protein, His Tag (Acro …)
Experiment: BLI (Octet), antibody on anti-human Fc sensor, 50 nM PTK7; grade 2 = substantially similar binding relative to parent

binding result	Binder
binds	B1
binds	B2
binds	B3
binds	B4
binds	B5
binds	B6
binds	B7
binds	B8
binds	B9
binds	B10
binds	B11
binds	B12
binds	B13
binds	B14
binds	B15
binds	B16
binds	B17
binds	B18
binds	B19
binds	B20
binds	B21

binding result	Binder
binds	B22
binds	B23
binds	B24
binds	B25
binds	B26
binds	B27
binds	B28
binds	B29
binds	B30
binds	B31
binds	B32
binds	B33
binds	B34
binds	B35
binds	B36
binds	B37
binds	B38
binds	B39
binds	B40
binds	B41
